From US6869925 (Amgen, dated 2005)

B1: human neutrophil elastase (protein)
chain: IVGGRRARPHAWPFMVSLQLRGGHFCGATLIAPNFVMSAAHCVANVNVRAVRVVLGAHNLSRREPTRQVFAVQRIFENGYDPVNLLNDIVILQLNGSATINANVQVAQLPAQGRRLGNGVQCLAMGWGLLGRNRGIASVLQELNVTVVTSLCRRSNVCTLVRGRQAGVCFGDSGSPLVCNGLIHGIASFVRGGCASGLYPDAFAPVAQFVNWIDSIIQ
B2: cathepsin G (protein)
chain: IIGGRESRPHSRPYMAYLQIQSPAGQSRCGGFLVREDFVLTAAHCWGSNINVTLGAHNIQRRENTQQHITARRAIRHPQYNQRTIQNDIMLLQLSRRVRRNRNVNPVALPRAQEGLRPGTLCTVAGWGRVSMRRGTDTLREVQLRVQRDRQCLRIFGSYDPRRQICVGDRRERKAAFKGDSGGPLLCNNVAHGIVSYGKSSGVPPEVFTRVSSFLPWIRTTMRS

Tests used:
[1] = target: SLPI binding sites on U937 cells (human monocyte cell line; intact cells, PMA-induced cells or plasma membranes) (human); assay: competition with 125I-SLPI, U937 plasma membranes, Kd by Cheng-Prusoff
[2] = target: SLPI binding sites on U937 cells (human monocyte cell line; intact cells, PMA-induced cells or plasma membranes) (human); assay: competition with 125I-SLPI, U937 plasma membranes, competitor at 2750 nM
[3] = target: SLPI binding sites on U937 cells (human monocyte cell line; intact cells, PMA-induced cells or plasma membranes) (human); assay: competition with 125I-SLPI, intact U937 cells, Kd by Cheng-Prusoff
[4] = target: SLPI binding sites on HuT78 cells (human T cell line) (human); assay: competition with 125I-SLPI, intact HuT78 cells, competitor at 2750 nM
[5] = target: SLPI binding sites on U937 cells (human monocyte cell line; intact cells, PMA-induced cells or plasma membranes) (human); assay: competition with 125I-SLPI, U937 plasma membranes, competitor at 8.20 nM
[6] = target: SLPI binding sites on U937 cells (human monocyte cell line; intact cells, PMA-induced cells or plasma membranes) (human); assay: competition with 125I-SLPI, U937 plasma membranes, competitor at 268 nM
[7] = target: SLPI binding sites on U937 cells (human monocyte cell line; intact cells, PMA-induced cells or plasma membranes) (human); assay: competition with 125I-SLPI, intact U937 cells, competitor at 270 nM
[8] = target: SLPI binding sites on U937 cells (human monocyte cell line; intact cells, PMA-induced cells or plasma membranes) (human); assay: competition with 125I-SLPI, U937 plasma membranes, competitor at 2.56 nM
[9] = target: SLPI binding sites on U937 cells (human monocyte cell line; intact cells, PMA-induced cells or plasma membranes) (human); assay: competition with 125I-SLPI, intact U937 cells, competitor at 860 nM
[10] = target: SLPI binding sites on U937 cells (human monocyte cell line; intact cells, PMA-induced cells or plasma membranes) (human); assay: competition with 125I-SLPI, intact U937 cells, competitor at 2750 nM
[11] = target: SLPI binding sites on U937 cells (human monocyte cell line; intact cells, PMA-induced cells or plasma membranes) (human); assay: competition with 125I-SLPI, U937 plasma membranes, competitor at 0.800 nM
[12] = target: SLPI binding sites on U937 cells (human monocyte cell line; intact cells, PMA-induced cells or plasma membranes) (human); assay: competition with 125I-SLPI, intact U937 cells, competitor at 0.024 nM
[13] = target: SLPI binding sites on U937 cells (human monocyte cell line; intact cells, PMA-induced cells or plasma membranes) (human); assay: competition with 125I-SLPI, U937 plasma membranes, competitor at 0 nM
[14] = target: SLPI binding sites on U937 cells (human monocyte cell line; intact cells, PMA-induced cells or plasma membranes) (human); assay: competition with 125I-SLPI, intact U937 cells, competitor at 0.078 nM
[15] = target: SLPI binding sites on U937 cells (human monocyte cell line; intact cells, PMA-induced cells or plasma membranes) (human); assay: competition with 125I-SLPI, intact U937 cells, competitor at 26 nM
[16] = target: SLPI binding sites on HuT78 cells (human T cell line) (human); assay: competition with 125I-SLPI, intact HuT78 cells, Kd by Cheng-Prusoff
[17] = target: SLPI binding sites on HuT78 cells (human T cell line) (human); assay: competition with 125I-SLPI, intact HuT78 cells, competitor at 0.80 nM
[18] = target: SLPI binding sites on U937 cells (human monocyte cell line; intact cells, PMA-induced cells or plasma membranes) (human); assay: competition with 125I-SLPI, intact U937 cells, competitor at 0.80 nM
[19] = target: SLPI binding sites on U937 cells (human monocyte cell line; intact cells, PMA-induced cells or plasma membranes) (human); assay: competition with 125I-SLPI, U937 plasma membranes, competitor at 83.9 nM
[20] = target: SLPI binding sites on U937 cells (human monocyte cell line; intact cells, PMA-induced cells or plasma membranes) (human); assay: competition with 125I-SLPI, intact U937 cells, competitor at 8.2 nM
[21] = target: SLPI binding sites on HuT78 cells (human T cell line) (human); assay: competition with 125I-SLPI, intact HuT78 cells, competitor at 84 nM
[22] = target: SLPI binding sites on U937 cells (human monocyte cell line; intact cells, PMA-induced cells or plasma membranes) (human); assay: competition with 125I-SLPI, intact U937 cells, competitor at 84 nM
[23] = target: SLPI binding sites on U937 cells (human monocyte cell line; intact cells, PMA-induced cells or plasma membranes) (human); assay: competition with 125I-SLPI, intact U937 cells, competitor at 0.25 nM
[24] = target: SLPI binding sites on HuT78 cells (human T cell line) (human); assay: competition with 125I-SLPI, intact HuT78 cells, competitor at 0 nM
[25] = target: SLPI binding sites on HuT78 cells (human T cell line) (human); assay: competition with 125I-SLPI, intact HuT78 cells, competitor at 2.6 nM
[26] = target: SLPI binding sites on U937 cells (human monocyte cell line; intact cells, PMA-induced cells or plasma membranes) (human); assay: competition with 125I-SLPI, intact U937 cells, competitor at 0 nM
[27] = target: SLPI binding sites on HuT78 cells (human T cell line) (human); assay: competition with 125I-SLPI, intact HuT78 cells, competitor at 8.2 nM
[28] = target: SLPI binding sites on U937 cells (human monocyte cell line; intact cells, PMA-induced cells or plasma membranes) (human); assay: competition with 125I-SLPI, intact U937 cells, competitor at 2.6 nM
[29] = target: HIV-1 envelope protein gp120

Molecule | Kd [1] [nM] | CPM *SLPI BOUND [2] [cpm] | Kd [3] [nM] | % *SLPI BOUND [4] [%] | CPM *SLPI BOUND [5] [cpm] | CPM *SLPI BOUND [6] [cpm] | CPM *SLPI BOUND [8] [cpm] | % *SLPI BOUND [10] [%] | CPM *SLPI BOUND [11] [cpm] | CPM *SLPI BOUND [13] [cpm] | Kd [16] [nM] | % *SLPI BOUND [17] [%] | % *SLPI BOUND [18] [%] | CPM *SLPI BOUND [19] [cpm] | % *SLPI BOUND [20] [%] | % *SLPI BOUND [21] [%] | % *SLPI BOUND [22] [%] | % *SLPI BOUND [24] [%] | % *SLPI BOUND [25] [%] | % *SLPI BOUND [26] [%] | further results
HIV-1 envelope protein gp120 | 400 |  |  |  |  |  |  |  |  |  |  |  |  |  |  |  |  |  |  |  | 
SLPI mutein Gly 20 (from UniProt P03973 26-132) | 5 | 1500 | 3.5 | 7 | 7400 | 1620 | 11400 | 5 | 14900 | 18700 | 13 | 109 | 91 | 2490 | 49 | 50 | 11 | 100 | 91 | 130 | % *SLPI BOUND [7]: 6%; % *SLPI BOUND [9]: 5%; % *SLPI BOUND [12]: 110%; % *SLPI BOUND [14]: 117%; % *SLPI BOUND [15]: 28%; % *SLPI BOUND [23]: 110%; % *SLPI BOUND [27]: 103%
SLPI mutein Val 72 (from UniProt P03973 26-132) | 19 | 923 | 30 | 14 | 9240 | 1740 | 11600 | 8 | 14000 | 18700 | 9 | 93 | 90 | 3380 | 78 | 43 | 48 | 100 | 96 | 95 | % *SLPI BOUND [28]: 80%; % *SLPI BOUND [27]: 81%
B1 |  |  |  |  |  |  |  |  |  |  |  |  |  |  |  |  |  |  |  |  | proteolytic cleavage of gp120 (Western blot, reducing SDS-PAGE) [29]: Incubation at 37° for 30 min, with 10 nM HNE yielded primarily 2 bands on Western blot
B2 |  |  |  |  |  |  |  |  |  |  |  |  |  |  |  |  |  |  |  |  | proteolytic cleavage of gp120 (Western blot) [29]: gp120 (400 nM) was also incubated at 37° for 30 min, with 10 nM cathepsin G and yielded different bands
